Experiments:
GST-Freud-2 (GST-hF2) [1] = target: T1, GST-Freud-2 (GST-hF2) (Homo sapiens, UniProt Q5T0F9 1-858); test: EMSA
T1 sequence: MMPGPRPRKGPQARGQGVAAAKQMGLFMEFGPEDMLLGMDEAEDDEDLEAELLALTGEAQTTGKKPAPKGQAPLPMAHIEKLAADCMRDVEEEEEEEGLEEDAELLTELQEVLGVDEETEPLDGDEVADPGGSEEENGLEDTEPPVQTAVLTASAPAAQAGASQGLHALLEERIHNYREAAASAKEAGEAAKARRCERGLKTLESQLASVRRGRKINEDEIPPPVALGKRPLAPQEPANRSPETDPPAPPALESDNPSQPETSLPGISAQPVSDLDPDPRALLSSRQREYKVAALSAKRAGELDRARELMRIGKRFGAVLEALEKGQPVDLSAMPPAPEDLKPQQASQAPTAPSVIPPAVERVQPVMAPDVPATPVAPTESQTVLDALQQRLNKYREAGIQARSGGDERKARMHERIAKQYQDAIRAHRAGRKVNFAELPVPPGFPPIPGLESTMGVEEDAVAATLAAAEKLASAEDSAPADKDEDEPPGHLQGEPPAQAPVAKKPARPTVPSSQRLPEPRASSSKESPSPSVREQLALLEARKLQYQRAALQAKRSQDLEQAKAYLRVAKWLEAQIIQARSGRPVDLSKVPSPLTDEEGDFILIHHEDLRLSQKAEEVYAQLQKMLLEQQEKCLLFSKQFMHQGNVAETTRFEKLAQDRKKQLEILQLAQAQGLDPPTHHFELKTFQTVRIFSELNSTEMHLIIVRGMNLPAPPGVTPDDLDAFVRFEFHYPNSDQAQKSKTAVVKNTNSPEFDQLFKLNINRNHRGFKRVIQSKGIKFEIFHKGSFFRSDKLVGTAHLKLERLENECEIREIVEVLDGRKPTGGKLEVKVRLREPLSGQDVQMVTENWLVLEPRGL

GST-Freud-2 (GST-hF2) [2] = target: T1, GST-Freud-2 (GST-hF2); test: competition
GST-Freud-2 (GST-hF2) [3] = target: T1, GST-Freud-2 (GST-hF2); test: EMSA; remark: listed apart in the source
GST-Freud-2 (GST-hF2) [4] = target: T1, GST-Freud-2 (GST-hF2); test: competition; remark: listed apart in the source
GST-Freud-2 (GST-hF2) [5] = target: T1, GST-Freud-2 (GST-hF2); test: competition; remark: listed apart in the source

B1: 3'-DRE (-1597/-1565) (dsDNA)
DNA 1: AGGTGGCGACATAAAACCTCATTGCTTAGAACT
DNA 2: AGTTCTAAGCAATGAGGTTTTATGTCGCCACCT
B1: binds (GST-Freud-2 (GST-hF2) [1]).

B2: 16-bp 5' (-1613/-1598) (dsDNA)
DNA 1: TAAAACATTTGCCAGA
DNA 2: TCTGGCAAATGTTTTA
B2: binds (GST-Freud-2 (GST-hF2) [2]).

B3: 5'-DRE (-1624/-1598) (dsDNA)
DNA 1: AGATGGCACTCTAAAACATTTGCCAGA
DNA 2: TCTGGCAAATGTTTTAGAGTGCCATCT
B3: binds (GST-Freud-2 (GST-hF2) [3]).

B4: 17-bp 5' (-1624/-1608) (dsDNA)
DNA 1: AGATGGCACTCTAAAAC
DNA 2: GTTTTAGAGTGCCATCT
B4: binds (GST-Freud-2 (GST-hF2) [2]).

B5: 19-bp 3' (-1597/-1578) (dsDNA)
DNA 1: AGGTGGCGACATAAAACCT
DNA 2: AGGTTTTATGTCGCCACCT
B5: binds (GST-Freud-2 (GST-hF2) [4]).

B6: 12-bp 3' (-1578/-1566) (dsDNA)
DNA 1: CATTGCTTAGAA
DNA 2: TTCTAAGCAATG
B6: no binding (GST-Freud-2 (GST-hF2) [5]).

Source: paper PMC4084727
